Earlier results as cited in publication PMC4138051.
Where two headings read alike, the source gives them in different places.

Assays:
[1] = target: MLL MBM1 6-13 (Homo sapiens) (UniProt Q03164)
[2] = target: MLL MBM2 24-40 (Homo sapiens) (UniProt Q03164)
MLL 1-160 (Homo sapiens) [3] = target: MLL 1-160 (Homo sapiens) (UniProt Q03164)
MLL 1-160 (Homo sapiens) [4] = target: MLL 1-160 (Homo sapiens) (UniProt Q03164); remark: listed apart in the source

Kd [1]: 56 nM | Kd [2]: 1000 nM | Kd (MLL 1-160 (Homo sapiens) [3]): 1500 nM | Kd (MLL 1-160 (Homo sapiens) [4]): 10 nM
Substance: menin (from UniProt O00255)
